Laboratory results taken from the domain aggregation screens of Martell et al. (2025).

Assay: soluble fraction after stress (log2 fold change); higher = more stays soluble; pooled small domains, quantitative proteomics
Details: stress: pH 4
In short: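 Small protein domains from pooled custom libraries were exposed to pH 4, then quantified with high-throughput quantitative proteomics. The fold change in how much of each domain remains soluble is read as aggregation propensity. It is given as log2, with higher values meaning more stayed soluble.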

HMNPSIALHDWLQSSEFKGSINLFAAALGMNPRTVEAWVYGRSTPSRRFWAKLYQITNLSRFRL
soluble fraction (log2): 0.22

HMVNDDTIAATEAEILALLADKHRHHITELNSIRRPYEQIDAALSSLINEEKIFQEDGMLFV
soluble fraction (log2): -0.908

HMEQPAPSTTVDILGGGRAALVTANRELGLALADDEIDYLTDSFTQLGRNPVDVELMMFAQA
soluble fraction (log2): -0.224

HMFVTGTTIKKLREEKRMTQGELAQMIGVSDKAVSKWETGRGLPDISLLEPLSRALGISVAELFAGQH
soluble fraction (log2): -0.0399

HMDSRQIIAALQARYADETGITALKIKFNNVLGYFVDVPARYGDPLMKPPLSETFIHRQTLASNVRF
soluble fraction (log2): -0.0558

HMGTRYVEFVIPGTGNHEVRIVSSNGSRQNVEVAGTYPGGARLRTKVDNGVRRVSFYVDNRLVEEKQ
soluble fraction (log2): -0.0183

HMNITHEINVKSKSKIDFLENNKNLAQFFLTKNPNQFNYNLVFSDKSELNIIKEKIESHKDIEDIDIRYG
soluble fraction (log2): -1.11

HMETTVSYSGVVTASVLRIRKGPSVSSSVAGTLKKGTGVSIIFEDNGWGKLADGSGWVSLTYIKKNSTP
soluble fraction (log2): -0.101

HMNNQILYERLRDLRERNHFTQAFVSSKLNIGRATYSNYERGKRTPSLDVIMDLASFYKVPFTYF
soluble fraction (log2): 0.113

HMNSSLLGKRIKSLREDHDLTQKELSLMIGLTPKMISFYENNQRTPPLDILLKLAKIFEVSVDYLIGYA
soluble fraction (log2): -0.0642

HMKPDMAVIVGSRTLTFATTTDRQILVLRTDGTMVNRLSMKAGETRTITLPAGVYIVNGKKIIV
soluble fraction (log2): 0.22

HMKDRDISNAVLNILSKDSDHNYNYKQIASVLGVKDPFVRKRIVSVLAQLTKNGQLEEISRGKYQIKN
soluble fraction (log2): -0.694

HMLNSISIKTNKKIDFLEKNEHLVNFVYEKETMEHIYNLSYENKKDLQELQNKLSDIEGIIKINTDL
soluble fraction (log2): -2.18

HMEPVDYEALRKELMQKVMGLFTQSRDVGIQILSSFGAKKLSDVPDDKLVAFAASVDKALAG
soluble fraction (log2): 0.138

HMNYTQAQIDRANAVSLEDFLRTQGETLIKSGREYRWKEHDSLTVRGNKWFRHSQSKGGYPIDFVMEFTA
soluble fraction (log2): -0.0561

HMLQIGDEEFIENIVKQVIDENQKAVDDYKKGKEKVMAFLIGQVMKKTKGKVNSEIVEKTIKKL
soluble fraction (log2): -0.565

HMGNIALAIARFREMIAEDPNLQPVRLHLAMALMADHQDEAARGQLEKLRSDQLPDDIRKIVDDALAALR
soluble fraction (log2): -0.487

HMINLGDLEVGHTYHTRMPILQNDLKYSHKSPIQIVAEHSIVYGVRVYIGFLNEHRVLVTADDV
soluble fraction (log2): -0.269

HMTKEEKEKREKYEKLMKKADELVTAKNHKEAVTVLGQAKAYANPQQTKEIEEKIKAQTAELDKG
soluble fraction (log2): 0.24

HMFDFNNLSSLSDVELSVYRFVVNNPEKVAYMRVRDIAQKTHVANSSVMRFVHKIGFASFPEFKAYLKNIN
soluble fraction (log2): -0.0916

HMEIDDPWLILGINAGSSIEIAQKAWKDLASQNHPDKLIANGVPKELLGMANEKLAIINGAYDKILKAHKI
soluble fraction (log2): -0.792

HMPLDYNELRSISPKAARQAILQILAANKGNVSATAKLLGVSRKTVYKAMHKKASGNLDDTSRAPK
soluble fraction (log2): 0.13

HMKTTKRERARAKLIQLLENEDRPAKEIYAGLGDIGVGSRTVEKVKKELQVTTYRSGGSWYWSLPKP
soluble fraction (log2): -0.147

HMGESVVVPDLRGKTLEEARAILKKVDLDYEINDSTYSKTAVPGTIRDIVPAPGSHVKAGRILFVSING
soluble fraction (log2): 0.0395

HMRRSDLVTQGDEILKRLQWNQQQAKDFLNQHLKASSRQQLTDEQLLNFNMLLEEQLVKSME
soluble fraction (log2): -0.0311

HMVAPPILNITTHIFAEEADLRMVMINGVTRREGDSLGENHRLLEITERGLILIFHNKQYTLDV
soluble fraction (log2): -2.1

HMKGVPGIGDYVKLSGGSTVGKVLSISGKKAEVAFGLLRTTTELSKLEKVRKPKELLQSGVSS
soluble fraction (log2): ≥ 0.43

HMLSNKIEQLRKEKGYTFAKLSELSGISTGRLSDLATGKRNNPTMDTLIKLADALDVTLDELVGR
soluble fraction (log2): -0.328

HMKIHNSIREITDFDRKQNSNIPSDAKYRIVFYTPQGNKTIIPEELQGLQYYRSKELAEIALNKKLNSN
soluble fraction (log2): 0.0952

HMTAVVPNFKGKLISELSNFVADKNVRYTIIDSIYDPEEKSGIVIKQDPEEKTQVKHNRIIYLYVTST
soluble fraction (log2): -1.11

HMIESFQNGLVEHDQFTRPNPWVTPNFSKIEVPSILLSGKHADIDLWKHQNSIENTKKNRPDLFKNYLKKN
soluble fraction (log2): -0.357

HMNYYYKDNQYWYVGFRYDERLVKEIKRFVGAGYNPENKEWYIPFTLPTVAPLQKWLHDNGFVEGMNYYP
soluble fraction (log2): -1.31

HMGSYVVQLGAFAIRANAEKLAREVDGSIATSGRFSLVRVGPFTSRGQAEQALAKLRARGYSDALIHSL
soluble fraction (log2): -0.234

HMVVYDAELLLNINPGMSYEEVKEMLGDPGMIIAGNDAENSVYRWSTGGISFMGRFENGALIRKSIISP
soluble fraction (log2): -0.916

HMPRVLSSYTLTLRHQPTAEAVALVRTLLSPAGSVEVKEDGRTLVVRDELAALSRIVGALRSFDH
soluble fraction (log2): -0.139

HMGGTATDYYNQGRTAYDVGDYNGALMNFQEAVRLDPRYGEAYYGLGKAYEALNMQNQALDAYLSAI
soluble fraction (log2): -1.46

HMEDKKQVLYELITDKSYRPLRFKELAVLLMVPKALRGELKQTLDELIKEGKITVDSSSRYRAA
soluble fraction (log2): 0.276

HMATETMGMIIRRLRREHGLTQEELAASIGVTAQAVSKWEKDLGMPDISQIVPLAGAFNVRTDVLFGLE
soluble fraction (log2): -0.672

HMATHWHITPNPNNGKFLISGLMQDDSFHLMDASGQWLRQLRTVNQELDLDLQPGVYFLKDNSGSVMKFVV
soluble fraction (log2): -1.15

HMESTLNYSQFLSLVNEDRVAEVVIQGKELYVTDVNRSRFKVYAPPDPELIGLLRQKRVIISAKP
soluble fraction (log2): 0.203

HMGTGSSAERITMLNSILERQIQAMEIQGNPDAPIVNIQKIYTTLQRIVETAGLKDVDQFFMNPLQGQKEM
soluble fraction (log2): -0.407

HMSFGFFELKSSDTDKLFAYLNNNEHFGNIKEENGLVTAFLTSELDAQTLNKLLFDNGIIASHLVKRK
soluble fraction (log2): -1.82

HMKTMEQSYIGRKIILDENVEDSALIKFEGIYWTFKSVSGPLKKGTEVEIIGIEGNKILIKNK
soluble fraction (log2): 0.181

HMRIAGIDIPDNKRGEVALTYIFGIGRSSSKKILKSAGIDSDKQIGKWTDDESNLVRKLIRDEYTIEGDL
soluble fraction (log2): -0.484

HMDAMQAFPNPTVDEIHFVTPTTGRVYNAHGQLVMVLKNAQLVNVRQWSAGQYVIVREDGYAVRWIK
soluble fraction (log2): -0.43

HMNTKLSYSDLIEKIEAGQVEKVELDAGGSSAIVKLKNDNIEKRVNVPSIDNLMENLQDNMKTGNISVTE
soluble fraction (log2): -0.202

HMGPPAVGAKLQVLRQARKLSLDELSRRAGVSKSMLSQVERNLANPTVAVLWRLATALGVGLADFLSP
soluble fraction (log2): -0.524

HMDEAEELYQAVQALKPKYREVILLHYYQGLRVGEIAAILRAPQSTVSIRLRRARQMLNRMLG
soluble fraction (log2): -0.0788

HMLIPTISVTKEGQLRFENIPVSWEELGTRLRDVSDLDKIKIYADAESDALTISEIMKTAANVGIVQFVLV
soluble fraction (log2): -1.13

HMEAFAEAVASMLRKLQPEFAIDLVGPRELLVNGRRLDLENLYRMVNHEPVRGQEIVEHYLDQLFAG
soluble fraction (log2): -0.665

HMQKTVLAASVYERMKERIMDQYYPPGERLNIDALAIDLAVSPTPIREALARLAAERLITFEAYKGYRVSP
soluble fraction (log2): -0.637

HMVSVLDHIVGIGAKRRQSLWNHFGTIDKIKAASIDELLKAPGMNRPSAEAVYYFFEAQRQLRGK
soluble fraction (log2): 0.0106

HMIKRITDEQHPVDVDRLLVVTFTNAAASEMRERIGDAIEAALEKDPYNQHLQRQLTLVHNAQITTIDS
soluble fraction (log2): 0.00503

HMAYLTGFHAIEELIRAGKAKGPLLVANAGPRARTIMSLATDNKIRIDRLGEHELNRLAPGNRGIALYVE
soluble fraction (log2): ≥ 0.43

HMTIATLGERIRKLRKERGLTLAELAGDKLSKGMLSLIENNRAKPSMESLEYIAKRLGVEPAELLE
soluble fraction (log2): 0.297

HMGSFTDKQIKQAFGVLNDPRFKQGNYDGAVAVINKIAPGLADHPSVANALKRANEATQDIAQQTQA
soluble fraction (log2): 0.161

HMDPLADLFSRIRNAQMRNKKVVTSPASKLRAGILEVLAKEGYIRGYAMTQHASGKNELDIELN
soluble fraction (log2): -0.0916

HMRAPIGFRISNRRKSLKISQVALARLVGISPSYLNLIENNKRDVGGALLQRVALHLNIDIDDL
soluble fraction (log2): -0.219

HMKTLKHYFASIAHEFGREEAELMLLSVFKTPFEQRLMLFMKDPALTEAQVQQLDNLVRQRKQGVPLPYIL
soluble fraction (log2): -0.287

HMAVSTFGRITASSLNVRSGPSTDHEKVGSLAAGRVVELLEESDGWYRIENGYISTEYVTIVDPSQ
soluble fraction (log2): -1.33

HMNLAPLLTEYVQINFRRASEMKTYLEQANLISERGFLLADDQTNILMVRETGASIEEIRRTLNRF
soluble fraction (log2): -1.61

HMKTALQENVRAYRLERKWTQQALAEALEVSVGAVSKWESGVSRPELETLMRLAELFGVSTDALLGF
soluble fraction (log2): -1.09

HMEDTVNVPIQINGKLRHVIQVQIGTSEEEIQKIALSEEQVKKFTDGHEILKVMVPKGKLVSIVI
soluble fraction (log2): -0.126

HMRKEEFIRELVLELKQNVSEQVILEQKRFYEEYILTEVRGGKTEEEVIASLSEPRLLAKSIIDAAEAGGD
soluble fraction (log2): -1.5

HMPVEHVWHIAENGQTSGPYSKARMGRMAQEGQLTRDTHVWTPGQDGWMRAGDVTELAQLFT
soluble fraction (log2): -0.0732

HMDVSEITTIKWIIKETKLGINEKILIYVNSKNFTVETLMEGFEIMSKYLVENVSSDKIVYIKN
soluble fraction (log2): 0.22

HMSGWIATGTATSTGNDVRVRSTPDATVNNNILLTLNKGNRFEIDGQTQNGFYHIKVNDTIGWISGLYVKE
soluble fraction (log2): 0.0378

HMTNYNTEKIIPEEQAGKRLDVVLANIFPEFSRSRLKNWIIDGFILVDGKVLRPRDFVTGGELVSIDVIV
soluble fraction (log2): -0.356

HMKLNKRQYAYQVIRSRILDGTYVPGQRIIIDQIAKEVNSSHIPVREAIHQLESEQLIDYEPNIGAIVKG
soluble fraction (log2): 0.181

HMSELTKEIGKRIHDFRKSRGLNQEELARLIYKSKATLSKYEKGEIAIDLDTLKQLALALHVRMEQLLPPT
soluble fraction (log2): ≥ 0.43

HMGVSLKEIQENLSLIDDAAQKLASGQGTVDDAVGMGNAGKDIYDNIEGYVSSPKEFINGVLSSV
soluble fraction (log2): -0.823

HMTEDTPIIVERVVADIDENVVAIVRKFKDAFKSITAQREIKKKLRSILWVNYQIKDQEVFDKAYQYIEMY
soluble fraction (log2): -0.784

HMDQFMLQSAWLRAVQHVMKHTDDVGTQFAEEARRMHYGEADERPIRGQATSDEARALHDEGIEVMALPI
soluble fraction (log2): -0.192

HMLADIGGRIADLRREVGLTQGELAEKADISVVHLSNIELGKKTPGLSTLIRIAEALDVATDWILQA
soluble fraction (log2): -1.13

HMEYSTLEIYSQTKKDLIEKSPHLNKVVYDKDDGYIYLLSFEKEDDLTSFKSNIENDSDIKRIEANV
soluble fraction (log2): -0.91

HMDKTTIKNEQKKQILIFAEMNLFFKAKDVAELLGLQASRARYLLQELVKDGKIQGIGNNKGRKYQLI
soluble fraction (log2): -0.591
